According to the supplement of paper PMC9732359:
± gives the uncertainty stated by the source.

test: protein stability index of a GFP-peptide fusion (yeast GPS) (PSI 1-4); higher = more stable; sorted into four equal gates, so the index is relative within each strain; settings: ubr1∆
Method in brief: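 Yeast carrying a pooled library were grown to mid-log phase in leucine-free medium. Each library plasmid expresses Cherry and has a tiled 17-residue yeast protein peptide fused downstream of GFP. Cells were sorted into four equal gates by GFP/Cherry ratio, and plasmids from each gate were PCR-amplified, Illumina-sequenced and assigned to strains by barcode. Summing, across gates, the read frequency times the gate number gave each peptide's protein stability index.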

Row | Sequence | protein stability index
1 | SATVKTSDLLGSHLSET [ECM29] | 2.86 ± 0.076
2 | SAWIWPMDEETKLYFDV [RPC25] | 2.41 ± 0.15
3 | SAYVKAFYQKGNKLVEL [SMC1] | 1.58 ± 0.052
4 | SDAEEEEGEYKNAANTE [ISW2] | 3.3 ± 0.093
5 | SDDKTRQLSPHTLMSFA [PRE1] | 2.18 ± 0.038
6 | SDEERDDEDDEHNPTIV [AAR2] | 3.31 ± 0.11
7 | SDERAKLELINRYAYVL [LRP1] | 2.93 ± 0.15
8 | SDNKKRSGSNAAASLPS [RPC82] | 3 ± 0.038
9 | SDPMLQRTATLCLEKLM [YCS4] | 1.14 ± 0.17
10 | SEAEYSKDIETLKKEWL [YIL149C/MLP2] | 3 ± 0.049
11 | SEGISEATREVFGISKT [ITC1] | 3.28 ± 0.2
12 | SEHFLYLAKELNLTGPK [RPN1] | 2.98 ± 0.29
13 | SEINEILARNDEEMAVL [SNF2] | 3.16 ± 0.099
14 | SELAGDEELEAEQIDVF [PRP8] | 2.75 ± 0.18
15 | SELQPQNRSLQEHNIQD [SNF2] | 3.09 ± 0.038
16 | SENEDTKDLLSKSPSEW [CSE2] | 3.19 ± 0.046
17 | SENQRQIFCVFSGKGVH [GRR1] | 2.76 ± 0.046
18 | SESDLDEDKNFPRSRSR [ESC2] | 3.28 ± 0.054
19 | SEYNFLEGSVSLPRFSK [DIS3] | 3.2 ± 0.05
20 | SFELKEEDISDLWNNFG [RRP6] | 3.26 ± 0.073
21 | SFILYYRRALQSSESFD [YML103C/NUP188] | 2.27 ± 0.052
22 | SFKKIIKFLLTFIDKER [YCS4] | 1.17 ± 0.066
23 | SFLDRKRAKEFITTLLK [SIN4] | 2.08 ± 0.042
24 | SFLGEAKSMAFLKEVLS [YML103C/NUP188] | 2.54 ± 0.21
25 | SFLMRQFTRFFLLVPSK [ECM29] | 2.31 ± 0.05

Row | Sequence | protein stability index
26 | SFNESQRGEDDLTFKLA [RPO21] | 1.09 ± 0.14
27 | SFTQGELNDLKWGRNQP [YMR129W/POM152] | 2.78 ± 0.074
28 | SFTSQGTISIQLKNGLL [MTR3] | 2.61 ± 0.032
29 | SFVGDYMHDTELNYFVG [GRR1] | 3.22 ± 0.067
30 | SGDREVQRTMLELLNQL [RPT5] | 3.21 ± 0.1
31 | SGELLQGIVRVYSKQAT [MCD1] | 1.76 ± 0.049
32 | SGNEMPPQDAEGWFYKR [RPS19A] | 3.17 ± 0.12
33 | SGNLPLNELSAKDKEIY [RPN13] | 3.19 ± 0.067
34 | SGQLNFEIDGDVIHFED [PCI8] | 2.83 ± 0.043
35 | SGTPTLKKNIEPKKDKE [YOR098C/NUP1] | 3.05 ± 0.084
36 | SGVKNDILQSLSGGGHD [CDC53] | 2.8 ± 0.048
37 | SGWGAVVYIIKKDEVVK [PUP3] | 3.27 ± 0.057
38 | SHFDYNTLEFIIEQLSI [YCG1] | 2.37 ± 0.086
39 | SHIESDSTSHNNGSSDK [MED1] | 3.01 ± 0.032
40 | SHLVVPYCPIASITGTG [YMR129W/POM152] | 1.36 ± 0.03
41 | SHLYKARLDGHDFLFNT [RPN14] | 2.85 ± 0.047
42 | SHTSLVKIGKFIPHGLK [SRB8] | 1.55 ± 0.054
43 | SIAEEIPIAIVLKACGI [RET1] | 1.66 ± 0.049
44 | SIDDHPYNLNLFPNELY [RPC31] | 2.68 ± 0.064
45 | SIDFRTYRCSIKNLPAD [SRB2] | 2.27 ± 0.067
46 | SIMPDLYFYRDPEEVEQ [RPS0A] | 2.85 ± 0.06
47 | SINKNNKEMHTDLGKDI [SSN2] | 3.48 ± 0.14
48 | SINVHSNNITSGLNRAI [RET1] | 3.17 ± 0.052
49 | SIRAEAVAASSTKTGTP [POP1] | 2.9 ± 0.069
50 | SKATGAPSANQGDEALS [RTT102] | 3.14 ± 0.24

Row | Sequence | protein stability index
51 | SKDLRSVWKPIAAIIGR [IRR1] | 2.58 ± 0.038
52 | SKEWFQLDDEDFDLLNK [FAS1] | 3.06 ± 0.08
53 | SKLSLSRTDAVRCKDCG [RPC10] | 1.9 ± 0.076
54 | SKMGAPWCVKPEYLAMY [ITC1] | 3.11 ± 0.058
55 | SKPSTASPSAHTSSSDG [RPN4] | 2.92 ± 0.045
56 | SKQLSLEEKKKRPNNKT [IRR1] | 2.79 ± 0.096
57 | SKSAPSKKISNTAAALV [YAR002W/NUP60] | 3.14 ± 0.048
58 | SKSENPVLSTIAFLVGL [SWI3] | 2.43 ± 0.057
59 | SKTHKTVSRAYGGSRCA [RPL34A] | 2.85 ± 0.048
60 | SKVVDDMPSLRLIDLSG [GRR1] | 2.71 ± 0.078
61 | SKYYPGVIIKVEESGEH [SNU114] | 2.42 ± 0.073
62 | SLCTVWKPNPSYDVENV [SRB5] | 1.84 ± 0.082
63 | SLDTSASTINGASIIQV [YML103C/NUP188] | 1.14 ± 0.093
64 | SLEGCVEMAWIMGFISY [FAS2] | 2.27 ± 0.078
65 | SLEMVPKDTSAATMTSA [RGR1] | 2.93 ± 0.088
66 | SLFQLSKLGKNLQTVHF [GRR1] | 2.43 ± 0.038
67 | SLGIRPCLRKYEEFRDV [RRP43] | 2.96 ± 0.076
68 | SLKKVDEIKAQRKEIKD [SMC4] | 3.4 ± 0.25
69 | SLLAMHKHNIMKNENAN [CDC53] | 3.05 ± 0.046
70 | SLLERHIPRLIPKQLLD [YJL039C/NUP192] | 1.45 ± 0.076
71 | SLLSLVGHLSILPQQSK [ECM29] | 1.64 ± 0.027
72 | SLQDLIYKRGQAGVTKA [SMC2] | 2.3 ± 0.079
73 | SLQDSIIKQENFNSVND [SSN2] | 2.73 ± 0.098
74 | SLQSSSQTQLENANAAN [MED2] | 1.33 ± 0.035
75 | SLSVVAGKWSSKYLIKQ [ECM29] | 2.39 ± 0.095

Row | Sequence | protein stability index
76 | SLTDVAFFTYDAGVTFN [ECM29] | 2.6 ± 0.068
77 | SLTRDFEQCCKEKKELQ [YIL149C/MLP2] | 3.14 ± 0.11
78 | SLTSKRLISQSLLASKS [RIP1] | 1.36 ± 0.21
79 | SLVALGIDPQDLKKLNL [CDC53] | 2.25 ± 0.04
80 | SLYIYYLIKLLGFEVKD [SIR2] | 2.27 ± 0.15
81 | SMILEAISTDKINPFGF [RRI2] | 2.92 ± 0.083
82 | SMILGVAASIIPFPDHN [RPB2] | 2.8 ± 0.094
83 | SMINSVSPTNVMGTPLT [PGD1] | 2.84 ± 0.047
84 | SMKMELLKKELLTIEPK [SMC2] | 2.61 ± 0.053
85 | SMNKELIAIVSKLLQTT [NUT1] | 1.4 ± 0.083
86 | SMTAVPKPLKFLRPTYP [RPN1] | 2.47 ± 0.064
87 | SNASQMGNTGSGGYDNA [RPB3] | 2.5 ± 0.15
88 | SNDLDKFFQKKIHLYEK [YGL172W/NUP49] | 2.32 ± 0.052
89 | SNELIEHFSHFGHIMED [YDL088C/ASM4] | 2.99 ± 0.045
90 | SNGLLSIVLLLLSQFGI [YML103C/NUP188] | 2.19 ± 0.079
91 | SNIMSDSKKIKVDSPDD [GAL11] | 2.88 ± 0.061
92 | SNISDEKSRISERDSKD [YMR129W/POM152] | 3.13 ± 0.063
93 | SNKSNSTNESNKSISDE [SSN2] | 3.09 ± 0.087
94 | SNNELVRTNTLTKAAIV [RPS8A] | 3.021 ± 0.018
95 | SNQERCHDEGNDMLQRN [RRI1] | 3.16 ± 0.076
96 | SNSMDRSSSASNEFVPN [SWI1] | 2.69 ± 0.045
97 | SNSNNNGNKDSSFNFNK [SWI1] | 3.16 ± 0.04
98 | SNTMYSVRLFSFLDPLN [YJL039C/NUP192] | 1.69 ± 0.059
99 | SPAGKYKRQKSSLLYTY [ESC2] | 1.16 ± 0.06
